From US20140314775A1 (ADRENOMED, published 2014)

Legend:
[1] = biological target: T1, human Adrenomedullin (hADM 1-52) (human, not fully specified; C-terminal amide (printed as PRSKISPQGY-NH2 for aa 43-52 of ADM, SEQ ID NO: 25; not restated for the peptide used in the assays)); assay: SPR, Biacore 2000; antibody captured via anti-mouse Fc on CM5, Adrenomedullin as analyte
T1 construct: also called Human ADM 1-52; human ADM
T1 peptide: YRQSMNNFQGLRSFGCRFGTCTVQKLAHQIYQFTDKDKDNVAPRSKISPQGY
Procedure: Reversible immobilization of the antibodies was performed using an anti-mouse Fc antibody covalently coupled in high density to a CM5 sensor surface according to the manufacturer's instructions (mouse antibody capture kit; GE Healthcare).

[2] = biological target: T1, human Adrenomedullin (hADM 1-52); assay: cell-based or functional assay

Kd [1]: 5.9 nM | IC50 (read off the curve; half of the partial plateau), in the presence of 5.63 nM hADM [2]: ~2 µg/mL
B1: NT-H (antibody, V domains shown)
VH: QVQLQQSGAELMKPGASVKISCKATGYTFSRYWIEWVKQRPGHGLEWIGEILPGSGSTNYNEKFKGKATITADTSSNTAYMQLSSLTSEDSAVYYCTEGYEYDGFDYWGQGTTLTVSS
VL: DVLLSQTPLSLPVSLGDQATISCRSSQSIVYSNGNTYLEWYLQKPGQSPKLLIYRVSNRFSGVPDRFSGSGSGTDFTLKISRVEAEDLGVYYCFQGSHIPYTFGGGTKLEIK
notes: also called antibody NT-H; NT-H antibody
